For 2 molecules, binding result and Kd results are on record in patent publication US20080274976A1 (UNIVERSITY OF UTAH RESEARCH FOUNDATION, published 2008).

“And” between values parts separate entries of the source, which are not always exact repeats. Equal values may be shown once.

In experiment [1] the target is κM-conotoxin RIIIK (Conus radiatus). Description: voltage clamp of channels expressed in Xenopus oocytes.
Experiment [2] has the same target.

B1: Shaker K+ channel, wild type (other)
chain: MAAVAGLYGLGEDRQHRKKQQQQQQHQKEQLEQKEEQKKIAERKLQLREQQLQRNSLDGYGSLPKLSSQDEEGGAGHGFGGGPQHFEPIPHDHDFCERVVINVSGLRFETQLRTLNQFPDTLLGDPARRLRYFDPLRNEYFFDRSRPSFDAILYYYQSGGRLRRPVNVPLDVFSEEIKFYELGDQAINKFREDEGFIKEEERPLPDNEKQRKVWLLFEYPESSQAARVVAIISVFVILLSIVIFCLETLPEFKHYKVFNTTTNGTKIEEDEVPDITDPFFLIETLCIIWFTFELTVRFLACPNKLNFCRDVMNVIDIIAIIPYFITLATVVAEEEDTLNLPKAPVSPQDKSSNQAMSLAILRVIRLVRVFRIFKLSRHSKGLQILGRTLKASMRELGLLIFFLFIGVVLFSSAVYFAEAGSENSFFKSIPDAFWWAVVTMTTVGYGDMTPVGVWGKIVGSLCAIAGVLTIALPVPVIVSNFNYFYHRETDQEEMQSQNFNHVTSCPYLPGTLGQHMKKSSLSESSSDMMDLDDGVESTPGLTETHPGRSAVAPFLGAQQQQQQPVASSLSMSIDKQLQHPLQQLTQTQLYQQQQQQQQQQQNGFKQQQQQTQQQLQQQQSHTINASAAAATSGSGSSGLTMRHNNALAVSIETDV
notes: whole, on cells
With B1, the binding result with κM-conotoxin RIIIK [1] was “binds”.

B2: Shaker-Δ6-46 K+ channel (other)
chain: MAAVALREQQLQRNSLDGYGSLPKLSSQDEEGGAGHGFGGGPQHFEPIPHDHDFCERVVINVSGLRFETQLRTLNQFPDTLLGDPARRLRYFDPLRNEYFFDRSRPSFDAILYYYQSGGRLRRPVNVPLDVFSEEIKFYELGDQAINKFREDEGFIKEEERPLPDNEKQRKVWLLFEYPESSQAARVVAIISVFVILLSIVIFCLETLPEFKHYKVFNTTTNGTKIEEDEVPDITDPFFLIETLCIIWFTFELTVRFLACPNKLNFCRDVMNVIDIIAIIPYFITLATVVAEEEDTLNLPKAPVSPQDKSSNQAMSLAILRVIRLVRVFRIFKLSRHSKGLQILGRTLKASMRELGLLIFFLFIGVVLFSSAVYFAEAGSENSFFKSIPDAFWWAVVTMTTVGYGDMTPVGVWGKIVGSLCAIAGVLTIALPVPVIVSNFNYFYHRETDQEEMQSQNFNHVTSCPYLPGTLGQHMKKSSLSESSSDMMDLDDGVESTPGLTETHPGRSAVAPFLGAQQQQQQPVASSLSMSIDKQLQHPLQQLTQTQLYQQQQQQQQQQQNGFKQQQQQTQQQLQQQQSHTINASAAAATSGSGSSGLTMRHNNALAVSIETDV
For the molecule B2, the Kd – broadly, the constant that tells how readily two partners part at equilibrium – with κM-conotoxin RIIIK [2] is 3.33 µM and 1.26 µM.
